The record followed here is patent KR20210098147A (dated 2021).

For the test, the target named is T1, PD-L1 (Programmed death-ligand 1) on MDA-MB-231 cancer cells (UniProt Q9NZQ7 19-290, limits assumed).
T1 construct: whole, on cells; Endogenous PD-L1 of the MDA-MB-231 cell line
Briefly: concluded from co-culture 4-1BB reporter assay with PD-L1-expressing MDA-MB-231 cells. In general terms: Reporter assays use an easily measured gene product as a stand-in for the process of interest.

T1 sequence (Q9NZQ7 19-290 limits assumed): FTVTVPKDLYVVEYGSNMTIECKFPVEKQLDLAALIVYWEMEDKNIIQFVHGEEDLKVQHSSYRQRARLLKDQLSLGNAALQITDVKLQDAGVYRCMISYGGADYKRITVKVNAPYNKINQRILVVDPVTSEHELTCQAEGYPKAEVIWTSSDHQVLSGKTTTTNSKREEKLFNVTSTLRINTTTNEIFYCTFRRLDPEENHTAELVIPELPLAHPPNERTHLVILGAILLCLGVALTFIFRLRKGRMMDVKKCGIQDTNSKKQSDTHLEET

B1: αCEA-αPDL1-hyFc-4-1BBL 융합단백질 이량체 (Fc fusion)
chain: EVQLVESGGGVVQPGRSLRLSCSASGFDFTTYWMSWVRQAPGKGLEWIGEIHPDSSTINYAPSLKDRFTISRDNAKNTLFLQMDSLRPEDTGVYFCASLYFGFPWFAYWGQGTPVTVSSGGGGSGGGGSGGGGSDIQLTQSPSSLSASVGDRVTITCKASQDVGTSVAWYQQKPGKAPKLLIYWTSTRHTGVPSRFSGSGSGTDFTFTISSLQPEDIATYYCQQYSLYRSFGQGTKVEIKGGGGSGGGGSGGGGSGGGGSEVQLLESGGGLVQPGGSLRLSCAASGFTFSSYDMSWVRQAPGKSLEWVATISDAGGYIYYSDSVKGRFTISRDNSKNTLYLQMNSLRAEDTAVYICAREFGKRYALDYWGQGTTVTVSSGGGGSGGGGSGGGGSDIQMTQSPSSLSASVGDRVTITCKASQDVTPAVAWYQQKPGKAPKLLIYSTSSRYTGVPSRFSGSGSGTDFTFTISSLQPEDIATYYCQQHYTTPLTFGQGTKLEIKGGGGSGGGGSGGGGSEPKSCDKTHTCPPCPSHTQPLGVFLFPPKPKDQLMISRTPEVTCVVVDVSQEDPEVQFNWYVDGVEVHNAKTKPREEQFNSTYRVVSVLTVLHQDWLNGKEYKCKVSNKGLPSSIEKTISKAKGQPREPQVYTLPPSQEEMTKNQVSLTCLVKGFYPSDIAVEWESNGQPENNYKTTPPVLDSDGSFFLYSRLTVDKSRWQEGNVFSCSVLHEALHNHYTQKSLSLSLGKGGGGSDPAGLLDLRQGMFAQLVAQNVLLIDGPLSWYSDPGLAGVSLTGGLSYKEDTKELVVAKAGVYYVFFCLELRRVVAGEGSGSVSLALHLQPLRSAAGAAALALTVDLPPASSEARNSAFGFQGRLLHLSAGQRLGVHLHTEARARHAWQLTQGATVLGLFRVCPEIPAGLPSPRSE
notes: Homodimer by disulfide bonds in the linker; also called IO-129; αCEA-αPDL1-hyFc-h4-1BBL 융합단백질 이량체
Turning to B1, the binding result was “binds”.
